PMC11025796

Tests used:
[1] = biological target: HrGH45, endogenous glycosylated GH45 endo-1,4-β-D-glucanase from the red abalone (Haliotis rufescens) (Haliotis rufescens); assay: zymography (SDS-PAGE without reducing agent or heating, in-gel cellulase activity); 12% SDS-PAGE gel with 0.1% (w/v) CMC in the resolving phase, sample not reduced and not heated; Triton X-100 wash, overnight at 37°C in buffer A, Congo red stain; a second gel stained with Coomassie
[2] = biological target: HrGH45, endogenous glycosylated GH45 endo-1,4-β-D-glucanase from the red abalone (Haliotis rufescens) (Haliotis rufescens); assay: SEC; calibrated gel filtration on an Agilent Bio SEC-3 HPLC column; 0.1 mg/mL HrGH45 in buffer A (50 mM sodium acetate pH 6.0, 200 mM NaCl, 1 mM EDTA, 0.05% NaN3), 1 mL/min; mass in solution compared with the MALDI-TOF mass of the monomer

Substance “HrGH45, endogenous glycosylated GH45 endo-1,4-β-D-glucanase from the red abalone (Haliotis rufescens) (enzyme)” has a stoichiometry N [1] of 3 and a stoichiometry N [2] of 3.
